In the Immune Epitope Database (IEDB):
One block for each sequence: values may come before it.

How the values were obtained:
Conditions in all cases: source organism: Homo sapiens
HLA-A*03:01 [1] = test: IEDB peptide-MHC binding, purified MHC/competitive/radioactivity; ≥ and ≤ were set here for values at or beyond the usual limits of such assays
HLA-A*11:01 [2] = test: as above
HLA-A*02:01 = test: IEDB peptide-MHC binding, purified MHC/competitive/radioactivity; filed as Kd, often an IC50 or EC50 that approximates it; ≥ and ≤ were set here for values at or beyond the usual limits of such assays
HLA-B*08:01 = test: as above
HLA-B*07:02 = test: as above
HLA-B*27:01 [3] = test: IEDB peptide-MHC binding, purified MHC/competitive/radioactivity; ≥ and ≤ were set here for values at or beyond the usual limits of such assays
HLA-A*11:01 [4] = test: IEDB peptide-MHC binding, purified MHC/competitive/radioactivity; filed as Kd, often an IC50 or EC50 that approximates it; ≥ and ≤ were set here for values at or beyond the usual limits of such assays
HLA-A*24:02 = test: as above
HLA-B*27:01 [5] = test: as above
HLA-A*03:01 [6] = test: as above

IC50 (HLA-A*03:01 [1]): 0.3 µM
IC50 (HLA-A*11:01 [2]): 0.097 µM
Sequence: ATGFKQSSK

Kd (HLA-A*02:01): ≥ 30 µM
Kd (HLA-B*08:01): 3.6 µM
Sequence: ATGFKQSSKAL

Kd (HLA-A*02:01): ≥ 50 µM
Sequence: CITQGKAI

Kd (HLA-A*02:01): ≥ 50 µM
Sequence: DLSSCITQGKA

Kd (HLA-B*07:02): ≥ 30 µM
Sequence: EALQRPVASDF

IC50 (HLA-B*27:01 [3]): 0.19 µM
Sequence: GFKQSSKAL

IC50 (HLA-A*03:01 [1]): 0.81 µM
Kd (HLA-A*11:01 [4]): 2.15 µM
Sequence: GFKQSSKALQR

IC50 (HLA-A*03:01 [1]): 0.545 µM
Kd (HLA-A*11:01 [4]): ≥ 5 µM
Sequence: GKQSSKALQR

IC50 (HLA-A*03:01 [1]): 0.4 µM
IC50 (HLA-A*11:01 [2]): 0.125 µM
Sequence: HSATGFKQSSK

Kd (HLA-A*02:01): ≥ 50 µM
Sequence: HVASGAGEAAI

Kd (HLA-A*11:01 [4]): ≥ 30 µM
Sequence: INKEEALQR

Kd (HLA-A*24:02): ≥ 30 µM
Sequence: KALQRPVSDF

IC50 (HLA-A*03:01 [1]): 0.043 µM
IC50 (HLA-A*11:01 [2]): 0.273 µM
Sequence: KQSSKALQR

Kd (HLA-A*02:01): ≥ 30 µM
Kd (HLA-B*08:01): 1.9 µM
Sequence: LTINKEEAL

Kd (HLA-B*27:01 [5]): ≥ 30 µM
Sequence: NKEEALQR

Kd (HLA-A*02:01): ≥ 30 µM
Sequence: PLTINKEEAL

Kd (HLA-A*03:01 [6]): ≥ 30 µM
Kd (HLA-A*11:01 [4]): ≥ 30 µM
Sequence: QSSKALQR

Kd (HLA-A*03:01 [6]): 5.45 µM
Kd (HLA-A*11:01 [4]): 3.53 µM
Sequence: SATGFKQSSK

Kd (HLA-A*03:01 [6]): ≥ 30 µM
Kd (HLA-A*11:01 [4]): ≥ 30 µM
Sequence: TGFKQSSK

Kd (HLA-A*02:01): ≥ 30 µM
Sequence: TINKEEAL

Kd (HLA-A*03:01 [6]): ≥ 30 µM
Kd (HLA-A*11:01 [4]): ≥ 30 µM
Sequence: TINKEEALQR

Kd (HLA-A*02:01): ≥ 50 µM
Sequence: VASGAGEAAI
